Reference: a protein production outcome set (Wang et al. 2014)

Experiment: label from the status in PepcDB records

Row | Sequence | protein production
1 | VEGRTVTYGQQNGTARTGYLAAPADVDSVRSARGGDALPGIVVIHEWWGLNDNVRAATRRLAGEGYRALAVDLYGGAVAETPDSAQALMGQAMREPSRLVENVRDGRAYLSSEADAPRTALLGWCFGGGMTYRTLAEEASAFDAAVAYYGTPDPLAGEALQALETPILAHFGTQDQAVPIDAARKFRDRMEDAGTSLAYHEYDAGHAFANPSGESYEPAAAEQAWTRTTDFLQTHL | failed
2 | MRNKQSLVFLASSLFLLILAPITSEAISNPSTNINEVNREIVEESANDQATSAPSHSETLEQEPSLETTTTTDNHPAETDQSTATLEPSEQQKDDGTSATESVIVEPQPRMLAAPYATSLPDDPNIIPIDKVFQEPIGNATSILEGGKLLQLNPAVKSQKGAIWSKKPISLLSDFTFKSYLYLGNEYANAGDGMTFTLTNDPRMSTTPQEVIGSPGMGIGAYSTKAGQPYVRNALSIEFDTYKNTGSSNRMDREISQDKGNGHLAFVTPKANNNNYTGEHSGVTVAPTYLSNGTWRMLTVHWNAATKALTYDLEGVGTNTYVVSDLNAQFGATTVYWGFTSSTGGKYQENALAMTQIPTNVTSQAALSVNGQEFSSAVEAVKNDQVRLRNTLNIDNDFIEDRQPQVSIDLPDELAYEENSLTIDGKKVAAKDLTQTGNHLTIALNDYLVLKKDMMIELKTTLQDNTPEKVLTMNFDYYEEGTLLQKSNNVTITIPKPTEKTVTVFYKDAEGKDIAPPKSVTGKIGAPYQEKPLDISGYVFTKDSGNAEGTMTEETKDIYFYYRLGELYFKEAPKQITFGTEKIRNQPLIKLGHPTEGLKVVDERNANNWRLQLKQTQPLTNDSIVMPDVFSFVSTAGSSQITNEAITLLESNQKGETDLTALLDESKQQGIQINVPVAYQRVGTFKARLSWALEDVPGN | failed
3 | MGGPAYDCLTNPLGAVRFSFVNALSSGYDPASSVGKDWGVVDLFRHYFSDESAISQVPILDSSSIKWVQPKTLVRFRGMIQDMLGNEFYAGAYKDDSTWRTNKYSDVSQFPEGSSTEIQVWERRLLYCVPVPGKNQWTECSSQELKNRFLDLTGQNREKRVRVDEEMTDSMDSSKVGEATSSASESQVPQTSGIPPATSADSLPCLVKIYDSPESDLKLNDVVEFLGVLTFDPIVMMDTDTLDENSDALSEAESVQMPSGKQPKSPQIFKEIRESLMKYLTGLLGNDHIAAQFLLLHLLSKVHGRVDNVAVGKLSLNLIHLNKESMSIFGTQLSGALKSLLPFTQSIPLTIEYLNTASFGPKKDYGINRLMPGVLQIADGTHLILDETELQPGTLNSVGVENANLLKNLLECQKVEYDFQYYKMEMATDVQMLIFSEGKSNIMPADLVLPLQPSQVNSLEVITPETAETWRCYLATCKSLSHSIGQELQQVVENDLVAARQTDRSLGSQDLSRLLTMARMMSVSYGETTLSLEHWQMVLELERLRKERLK | failed
4 | MEFRFENLLGAPYRGGNAVITKNTQLISPVGNRVSVTDLSKNHSVTLPLETSTNICRLASSPDGTFLLAVDEQNRCLFINLPRRVVLHRITFKDKVGALKFSPNGKFIAVGIGKLVEIWRSPGFRRAVLPFERVRTFANSDDKVVSLEWSLDSDYLLVGSRDLAARLFCVRKLKGVLNKPFLFLGHRDSVVGCFFGVDKMTNKVNRAFTIARDGYIFSWGYTEKDVKMDESEDGHSEPPSPVTPDRADEVMVENGGGVGTELKKRKEYDGKGLESDEEGDDDDEEYMHRGKWVLLRKDGCNQASAKVTACDYHQGLDMVVVGFSNGVFGLYQMPDFICIHLLSISRQKLTTAVFNERGNWLTFGCAKLGQLLVWDWRTETYILKQQGHYFDVNCVTYSPDSQLLATGADDNKVKVWNVMSGTCFITFTEHTNAVTALHFMADNHSLLSASLDGTVRAWDFKRYKNYKTYTTPTPRQFVSLTADPSGDVVCAGTLDSFEIFVWSKKTGQIKDILSGHEAPVHGLMFSPLTQLLASSSWDYTVRLWDVFASKGTVETFRHNHDVLTVAFRPDGKQLASSTLDGQINFWDTIEGVLMYTIEGRRDIAGGRVMTDRRSAANSSSGKCFTTLCYSADGGYILAAGTSRYICMYDIADQVLLRRFQISHNLSLDGVLDFLHSKKMTEAGPIDLIDDDNSDEEGGIDKQSRGNLGYDLPGSRPNRGRPIIRTKSLSIAPTGRSFAAATTEGVLIFSIDDTFIFDPTDLDIDVTPEAVEAAIEEDEVSRALALSMRLNEDSLIKKCIFAVAPADIKAVAISVRQKYLERLMEALVDLLENCPHLEFILHWCQEICKAHGSSIQRNYRTLLPALRSLQKAITRAHQDLADMCSSNEYTLRYLCSVPNNH | failed
5 | MKKSKHLKRPYLKRSHLKHSDKASSFKGLLKKEDNVISLENFKPKESEDLLENFSNKKDMQELLGLLNQFILQSYKVEKEFKDYKALYEWVIEILPQAIWVVNENGSFFYKNSLANQSHEVFNKAKLENFNTEIEHENKSYLVQQNSIQGKQIITATDISAQKRQERLASMGKISAHLAHEIRNPVGSISLLASVLLKHANEKTKPIVVELQKALWRVERIIKATLLFSKGIQANRTKQSLKTLESDLKEALNCYTYSKDIDFLFNFSDEEGFFDFDLMGIVLQNFLYNAIDAIEALEESEQGQVKIEAFIQNEFIVFTIIDNGKEVENKSALFEPFETTKLKGNGLGLALSLQVVKAHEGSIALLENQEKTFEIKILNAS | failed
6 | GSSGSSGMPMTLGYWDIRGLAHAIRLFLEYTDSSYEEKRYTMGDAPDYDQSQWLNEKFKLGLDFPNLPYLIDGSHKITQSNAILRYLGRKHNLCGETEEERIRVDILENQLMDNRMVLARLCYNADFEKLKPGYLEQLPGMMRLYSEFLGKRPWFAGDKITFVDFIAYDVLERNQVFEAKCLDAFPNLKDFIARFEGLKKISDYMKTSRFLPRPMFTKMATWGSNSGPSSG | not failed
7 | MKQRIPTLLAGACLAIPLHALGAADLLVVNARIFTANPQQPFAEALAVEDGRILAVGDEAGLRALADGDSQVVDLGGKRLMPGLIDTHSHAVFGGLELAGADMGNEQVGLDELERRLRAWRDNGKARHGDMLNVSGMHTAYWSQVKDFRARFDHGEWADQPLAFIGSDHHTGWANAAMLKRAGIDAARVRALPEEQRNTIGHDADATPNGFLADAGLDAVLAVLPAPSAEQMLEAGRSAVRYSNSLGLTAWMDPAANGSPGDALFSLRPDENTVGVLPVYHRLAKGGELSAHVAALLVANPRSRPTDLEVLDKVRQRFLGSPNLTLPGIKVFADGVPEYPAQTAALLEPYRNSRKTGELLIDPAHFGELVSAADARGWLVHVHAIGDRAVREALNGMQQARRDRDSGIAHSITHLQLVNPKEFERFRPLGVIASMQLYWAAADETTVDLMKPYISAFAYRYQYPAHSLLSKGATIAGASDWPVSSLSPWKAIQQAVTRKGPQGVLNAGERLDRQTMFYAYTRNAARTIGLEHRIGSLEPGKQADFIVLDRDVFEVPETQLGETKVLKTWFAGKPVYSSEG | failed
8 | MAVTISGVRKHSPAYRHGIQAGERLLTLNGNEIMDVLDYRFYQLNTALVLELENNRGERRTVSLKKPEYEEIGLEFETYLMDRQHSCKNKCVFCFIDQLPKGLRKSLYFKDDDSRLSFLFGNYVTLTNLTEHEISRIIKMHISPMNISVHTTNPELRVKMMKNPRAGEALSIIRRFAQAGIKINCQIVLCPGYNDGEELKRTLSDLETMCPQVQAVAVVPVGITRYRQNLPEMRSFTRETAGEAIDLIESFGEKCLQKYGTRVAYPGDEFYLKAERPLPPAGFYEDFSMLENGVGLLPLLMDEFYSALEEAGETGGRKREITIATGMAPREYIRGFLDDAIKKFPHISGRVTPIVNRFFGETITVSGLVTGTDLIEQLSSVDLGDELLIPACMLRREGDLFLDDVSLQDVEAALKVPVRPVPNDGYAFLDAILGSESLEHHHHHH | failed
9 | MRRRDPSRKMILRMSHVVRRLRPDGIVELRPRDVRVERPEWYLGAYTTFLVSGALFISTAVPAQLVAITFLGCLLGEVCFGLRALVALRRPLAEVEVLAPMRRVR | failed
10 | MKKFVCTVCGYIHEGDAAPAQCPVCKVGADKFEEMKGEMVWADEHRIGVAQGVDAEIIEGLRANFTGECTEVGMYLAMSRQADREGYPEVAEAYKRIAFEEAEHAAKFAELLGEVVVADTKENLRVRVDAEYGATDGKLKLAKRAKELGLDAIHDTVHEMCKDEARHGKAFLGLLNRHFGKLEHHHHHH | not failed
11 | MNDTSNPYATPASALQPTQAVPPVIGDYDFRIGDVISEAWAKIKGVKGILIGAFVVYSVVIQTITFILTLLFGGIGLMSEADPIAFAVGQMIASLVATAVGYPFFTGLTMIGIRRAADQPATFNEMFNYFGMLVPLLLTGLLMMLMVYVGFFLLIIPGLYLSVAYMLALPLVAERGLTPWQALETSRKAISRHWFKVFGLLLVLSLLMLVSMIPLFIGLIWTGPLFVVSMGILYRTIFGVRPLGN | failed
12 | SAFQAAAARLGAPVSHDFCAISLSDLMTPWEVIEKRIEAAASADFVTAVYNPRSRDRYWQIHRFRELFLRHRSPSTPVGIVRNVTRKDESVVLTTLGEFDPDSLDMFTMMLVGNSTTF | not failed
13 | MLLEDRILKKWLLPFILSVLIAVDSMAQCIPVYKDSSMSVERRVTDLLGRMTLREKIAQLSHLHGYQLYNGQEVDYQKLRDAAGDISYGCIEGFNLTGENVRKAFHAIQKYMVEETRLGIPVFTVTESLHGSVHDGSTIFPQSVAVGSTFNLDLAYQMTKAIATELRSQGVIQTLSPGLDVVRDLRWGRVEESFGEDPWLVGQMGIAQVKGYIDGGISPMLKPFGPGGAPLGGLNLASVESGERDIRNIHIKPYEMAVRNTEVKAVMTSYNSWNGIPNSASSYLLTNILRNEWGFKGYVYSDWGAVAMLKDFQHTAKDDSEAAIQALTAGVDLEASSNCYWALEQLIEQGRFDEKYVDLAVGRILRVKFELGLFENPYQGADMPGVAMRTKEAVELSRRVADESIVLLKNENTLLPLNLNKIKSLAVIGPNANQVQFGDYTWSRSNKDGVTPLEGLKKRVGNKIKINYAAGCDLITDNKSGFDEAVAAVKASDMAVVFVGSSSASLARDYSDATCGEGFDLSSLDLTGVQEELVEEIYAIGKPVIVVLVTGKPFSISWIKEHIPAIVVQWYGGEKAGDAIADMLLGNINPSAKLPFSFPQSVGHLPVFYNHLPTDKGFYRRPGRPNEPGRDYVFSSPAPLWSFGHGLSYTTFEYLNAHYSAELLHPSDTLIVSVSLKNTGSVAGKEVVQLYVRDVVSSVVTPVKQLKAFSKPFLQPGEMQTVVLKLPIQELALYDLSMKKVVEEGEYEIQIGTASDDIRLRRTIFVGRQPVTSNSLGHNDFCMDEIVKNPGRKIKVAGCVRDVQATPISGIEIKSNYSGRTVISKEGGRYSILTVENDVLTVSAKGFETVNIKVNKQKDIDIKLNYSHD | failed
14 | MSKATTPGDQPKVSEMDFYQLLGVEKMASEAEIKSAYRKLALKYHPDRNPNDAHAQEEFKKVSIAYSVLSDPNKRRQYDVSGPSENQLDFEGFDVSEMGGVGRVFGALFSKLGVPIPTQIVPKVLAQARHICMGQECDVQARQLPPGETVTSSVSKQHAHFYEINIQEEHRKNGVAIICKSSSSKFKLVLFDKEGGVRMIQESGKRGKAGTQADMFFVPYNVANIQEFNAMKYHLEDKETPLAFHYLDSFEMQTATLLETRKHYIAVYGDNWISDVKYSITFLPVEPSAVEQLNEIQDTEKSISIIKKEMLDFQREFTEAKRKYDEAVAKLKVQDDTILKALAHREELYNEVLQKSQEPYNKKVSPSKSSGGLLGWFK | not failed
15 | MAPTIRLPFRRTLALLASATILAQTGMSGIAFAQTSPETAVPGVAAPVPAAPTPPASTPQQTPPVQTVVPTNGPASVADLAEGLLDAVVNISTSQNVKDDEGVGPAPRAPDGSPFQEFFNDFFNKKQGNKGPNHNVSSLGSGFVIDPAGYIVTNNHVIEGADDIEVNFANGSKLKAKLIGTDTKTDLSVLKVEPKTPLKSVKFGDSSEMRIGDWVMAIGNPFGFGGSVTVGIISGRGRNINAGPYDNFIQTDAAINKGNSGGPLFNMKGEVIGINTAIISPSGGSIGIGFSVPSELASGVVEQLRQYGETRRGWLGVRIQPVTDDIADSLGLDTAKGALVAGVIKGGPVDDGSIKAGDVILKFDGKTVNEMRDLPRVVAESTVGKEVDVVVLRDGKEQTVKVKLGRLEDSDQAASGDASPDGSQDGVITPDPDENDDMDQPDTGDQVAPAPGAPAPDQHQQGQVSPDAATPKNVLGLSLSLLSPETRKAFGIAESVDGVVVTEVEPGSASAEKGLKPGDVIVEVAQEFMKSPDAVAAKVKSLKQEGRRNAQLMIASANGDLRFVAVPME | failed
